Laboratory results published in PMC6065357 (2018).

Molecular target: T1, pro-brain-derived neurotrophic factor (proBDNF, residues 19-249, furin sites changed to AA) (UniProt P21237 19-249)
T1 chain: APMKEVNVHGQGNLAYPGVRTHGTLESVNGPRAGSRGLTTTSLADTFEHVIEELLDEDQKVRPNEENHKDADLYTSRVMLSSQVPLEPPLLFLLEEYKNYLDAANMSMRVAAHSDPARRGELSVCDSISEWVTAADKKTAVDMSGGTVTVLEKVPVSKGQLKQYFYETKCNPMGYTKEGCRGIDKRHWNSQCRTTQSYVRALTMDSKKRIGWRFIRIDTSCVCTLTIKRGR
Assay: SPR; second site of two-site fit, possibly sSorCS2 oligomerization

Kd: ~30 µM
B1: mouse SorCS2 mature extracellular segment (sSorCS2, residues 117-1072) (receptor)
chain: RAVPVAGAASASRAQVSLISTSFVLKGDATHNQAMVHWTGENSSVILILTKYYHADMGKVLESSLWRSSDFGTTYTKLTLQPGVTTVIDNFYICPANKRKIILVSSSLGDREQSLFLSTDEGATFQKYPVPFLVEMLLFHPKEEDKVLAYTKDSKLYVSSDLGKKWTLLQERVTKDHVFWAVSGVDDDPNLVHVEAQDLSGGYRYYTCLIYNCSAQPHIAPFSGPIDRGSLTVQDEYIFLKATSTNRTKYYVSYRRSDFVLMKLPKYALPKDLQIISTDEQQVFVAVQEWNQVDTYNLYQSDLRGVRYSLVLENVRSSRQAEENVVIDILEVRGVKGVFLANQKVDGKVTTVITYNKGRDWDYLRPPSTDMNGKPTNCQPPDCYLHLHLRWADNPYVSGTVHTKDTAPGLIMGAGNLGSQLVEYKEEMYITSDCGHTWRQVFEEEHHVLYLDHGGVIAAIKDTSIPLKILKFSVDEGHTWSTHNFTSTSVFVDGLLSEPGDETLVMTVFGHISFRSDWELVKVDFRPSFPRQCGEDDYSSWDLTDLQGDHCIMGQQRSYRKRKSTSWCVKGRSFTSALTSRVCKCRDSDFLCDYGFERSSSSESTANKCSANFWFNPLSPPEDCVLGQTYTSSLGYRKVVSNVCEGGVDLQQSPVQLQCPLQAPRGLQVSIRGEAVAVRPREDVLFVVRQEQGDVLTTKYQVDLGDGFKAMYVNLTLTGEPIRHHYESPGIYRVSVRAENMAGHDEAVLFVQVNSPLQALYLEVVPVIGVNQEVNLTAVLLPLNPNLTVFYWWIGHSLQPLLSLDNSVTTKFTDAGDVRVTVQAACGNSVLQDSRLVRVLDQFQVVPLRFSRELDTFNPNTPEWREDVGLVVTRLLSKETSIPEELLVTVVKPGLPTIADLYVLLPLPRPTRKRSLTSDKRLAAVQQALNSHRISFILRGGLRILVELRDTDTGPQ
